Numbering of substitutions follows the chain as printed.
T1: full-length human LAG-3 on cells (human, UniProt P18627 23-525)
T1 construct: Expressed on Flp-In-293, CHO or 293F transfectants; also called hPro1.FL; cell surface human LAG-3
T1 sequence: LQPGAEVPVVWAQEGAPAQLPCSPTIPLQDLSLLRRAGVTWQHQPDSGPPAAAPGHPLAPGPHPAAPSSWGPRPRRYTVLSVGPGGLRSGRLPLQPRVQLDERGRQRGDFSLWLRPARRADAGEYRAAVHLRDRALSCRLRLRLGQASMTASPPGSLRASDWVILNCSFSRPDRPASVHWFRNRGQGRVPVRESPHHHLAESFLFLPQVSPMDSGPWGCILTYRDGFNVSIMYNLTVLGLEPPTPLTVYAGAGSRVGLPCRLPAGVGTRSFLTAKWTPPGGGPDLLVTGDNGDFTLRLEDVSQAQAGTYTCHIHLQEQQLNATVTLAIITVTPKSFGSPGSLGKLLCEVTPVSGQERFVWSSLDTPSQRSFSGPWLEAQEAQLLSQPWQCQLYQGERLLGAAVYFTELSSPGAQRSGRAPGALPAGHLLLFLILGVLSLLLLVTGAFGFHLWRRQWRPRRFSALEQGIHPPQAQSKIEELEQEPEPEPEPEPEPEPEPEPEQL

T2: mFc-tagged LAG-3 protein (human, UniProt P18627 30-450)
T2 construct: also called human LAG-3 ECD with mouse Fc tag
T2 sequence: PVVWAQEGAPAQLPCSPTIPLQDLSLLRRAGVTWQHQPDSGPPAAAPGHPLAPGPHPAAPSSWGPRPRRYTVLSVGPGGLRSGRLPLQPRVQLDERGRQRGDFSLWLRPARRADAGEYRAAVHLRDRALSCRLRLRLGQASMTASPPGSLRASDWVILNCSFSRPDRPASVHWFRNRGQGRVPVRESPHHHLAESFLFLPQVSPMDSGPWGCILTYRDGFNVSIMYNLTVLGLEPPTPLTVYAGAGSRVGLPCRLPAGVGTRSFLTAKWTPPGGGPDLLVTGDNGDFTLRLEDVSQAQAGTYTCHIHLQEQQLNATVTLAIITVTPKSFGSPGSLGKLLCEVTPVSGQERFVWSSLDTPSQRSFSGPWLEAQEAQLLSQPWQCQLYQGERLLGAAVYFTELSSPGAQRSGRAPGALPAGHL

T3: human LAG-3-ECD.D12.mFc mutant H65A (human, UniProt P18627 37-252)
T3 construct: Alanine scanning mutant; construct limits as for m26
T3 chain: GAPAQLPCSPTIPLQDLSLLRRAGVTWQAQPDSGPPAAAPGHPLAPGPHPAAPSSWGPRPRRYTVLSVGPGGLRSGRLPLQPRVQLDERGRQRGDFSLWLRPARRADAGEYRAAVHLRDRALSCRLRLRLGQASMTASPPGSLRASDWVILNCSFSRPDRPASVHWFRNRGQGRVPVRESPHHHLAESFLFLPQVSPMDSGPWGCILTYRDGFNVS

T4: human LAG-3-ECD.D12.mFc mutant D143A (human, UniProt P18627 37-252)
T4 construct: Alanine scanning mutant; construct limits as for m26
T4 chain: T3 chain with A29H, D107A

T5: human LAG-3-ECD.D12.mFc mutant L42A (human, UniProt P18627 37-252)
T5 construct: Alanine scanning mutant; construct limits as for m26
T5 chain: T3 chain with L6A, A29H

B1: 3.40.19-uAb-IgG4L (antibody, V domains shown)
VH: QLQLQESGPGLVKPSETLSLTCTVSGDSISSTSYYWGWIRQPPGKGLEWIGSFYYSGSTYYNPSLKSRVTISVDTSKNQFSLKLNSVTAADTAVYYCARMQLWSYDVDVWGQGTTVTVSS
VL: QSALTQPASVSGSPGQSITISCTGTSSDVGGYDYVAWYQQHPGKVPKLMIYDVSERPSGVSNRFSGSKSGNTASLTISGLQAEDEADYYCSSYTSTTTLVVFGGGTKLSVL
notes: Fully human antibody from OMT rats; IgG4 lambda by its name; also called 3.40.19-uAb-hIgG4L
B2: 1.53.3-uAb-IgG4k (antibody, V domains shown)
VH: QVQLQQWGAGLLKPSETLSLTCGVYGGSFSGYYWSWIRQPPGMGLEWIGEINHRGNTNYNPSLKSRVTISEDTSKNQFSLRLSSVTAADTAVYFCTRGEDYSDYDYYGDFWGQGTLVTVSS
VL: EIVLTQSPATLSLSQGERATLSCRASQSISSYLAWYQQKPGQAPRLLIYAASNRATGIPARFSGSGSGTDFTLTISSLEPEDFAIYYCQQRSNWPLTFGGGTKVEIK
notes: Fully human antibody from OMT rats; IgG4 kappa by its name

Legend:
[1] = target: T1, full-length human LAG-3 on cells; experiment: FACS on human LAG-3 transfectant cells after incubation of the antibody in human serum at 37 C, PE-labeled goat anti-human IgG, MFI
Experimental: The lead Abs were incubated in freshly isolated human serum (serum content>95%) at 37° C. On indicated time points, an aliquot of serum treated sample was removed from the incubator and snap frozen in liquid N₂, and then stored at −80° C. until ready for test. The samples were quickly thawed immediately prior to the stability test. Human LAG-3 transfectant cells were incubated with various concentrations of lead antibodies at 4° C. for 1 hour. PE-labeled goat anti-human IgG was used to detect the binding of lead antibodies onto the cells. MFI of the cells was measured by a flow cytometer (BD FACSCanto II) and analyzed by FlowJo.

[2] = target: T2, mFc-tagged LAG-3 protein; experiment: ELISA competition: blocks mFc-tagged LAG-3 binding to coated Galectin-3
Experimental: 96-well plates were coated with human LSECtin or Galectin-3 at 0.5 μg/mL overnight at 4° C., respectively. Antibodies were serially diluted in 1% BSA-PBS and mixed with mFc-tagged LAG-3 protein. After blocking and washing, the mixture was transferred to the plates and incubated at room temperature for 1 h. The plates were then washed and subsequently incubated with corresponding secondary antibody for 60 min. After washing, TMB substrate was added and the color reaction was stopped by 2M HCl. The absorbance at 450 nm was read using a microplate reader.

[3] = target: T3, human LAG-3-ECD.D12.mFc mutant H65A; experiment: ELISA, antibody coated, LAG-3 D12.mFc mutant in supernatant, normalised to control mutants
Experimental: (§1) For ELISA binding assay, the antibody 1.53.3-uAb-IgG4k or 3.40.19-uAb-hIgG4L (2 μg/mL) was coated in plates. After interacting with the supernatant that contains quantified LAG-3 mutants or human LAG-3-ECD.D12.mFc protein, HRP conjugated anti-mFc antibody (1:5000; Bethyl, USA) was added as a detection antibody. Absorbance was normalized according to the average absorbance of control mutants. After setting an additional cutoff to the binding fold change (<0.75), the final determined epitope residues were identified.

[4] = target: T4, human LAG-3-ECD.D12.mFc mutant D143A; experiment: as above
Experimental: as §1

[5] = target: T5, human LAG-3-ECD.D12.mFc mutant L42A; experiment: as above
Experimental: as §1

Binder	EC50 (read off the curve) [1] [nM]	EC50 [2] [nM]	Fold Change [3]	Fold Change [4]	Fold Change [5]
B1	~0.8	0.56	0.489	0.529	0.306
B2	~3	0.74	0.627	0.671	0.624

— patent US20200407442A1 (WUXI BIOLOGICS IRELAND, published 2020)
